Source: patent US20190085039A1 (OSAKA UNIVERSITY, published 2019)

Molecular target: the molecule itself
Experiment: size exclusion gel filtration chromatography (Superdex 200 10/30, 20 mM HEPES pH 7.4, 150 mM NaCl); no self-association, elutes as a monomer
Method: The solvent is 20 mM HEPES solution of pH 7.4 containing 150 mM NaCl. The larger the molecular weight/molecular volume, the faster the flow in the column. Therefore, peaks appear on the left side in the figure. The spectra indicated with dotted lines in FIG. 1 show the absorptions of 10 μM DsRed (tetramer), tdTomato (dimer), and mCherry (monomer) in order from the left. […] Since the peak position of mfGFP is almost the same as that of mCherry, it can be said that

B1: monomeric green-yellow fluorescent protein mfGFP (other)
chain: MVSKGEEASGRALFQYPMTSKIELNGEINGKKFKVAGEGFTPSSGRFNMHAYCTTGDLPMSWVVIASPLQYGFHMFAHYPEDITHFFQECFPGSYTLDRTLRMEGDGTLTTHHEYSLEDGCVTSKTTLNASGFDPKGATMTKSFVKQLPNEVKITPHGPNGIRLTSTVLYLKEDGTIQIGTQDCIVTPVGGRKVTQPKAHFLHTQIIQKKDPNDTRDHIVQTELAVAGNLWHGMDELYK
notes: It was purified with an N-terminal polyhistidine tag; not shown: N-terminal polyhistidine tag from the bacterial expression vector pRSETB
- binding result: no binding (tested: 10 µM)
